Test results as given in PMC9352680, “A comprehensive thermodynamic model for RNA binding by the Saccharomyces cerevisiae Pumilio protein PUF4”.
Positions count from the first letter of the chain named. Names may count otherwise.

T1: PUF4 RNA-binding domain (Saccharomyces cerevisiae, UniProt P25339 537-888)
T1 sequence: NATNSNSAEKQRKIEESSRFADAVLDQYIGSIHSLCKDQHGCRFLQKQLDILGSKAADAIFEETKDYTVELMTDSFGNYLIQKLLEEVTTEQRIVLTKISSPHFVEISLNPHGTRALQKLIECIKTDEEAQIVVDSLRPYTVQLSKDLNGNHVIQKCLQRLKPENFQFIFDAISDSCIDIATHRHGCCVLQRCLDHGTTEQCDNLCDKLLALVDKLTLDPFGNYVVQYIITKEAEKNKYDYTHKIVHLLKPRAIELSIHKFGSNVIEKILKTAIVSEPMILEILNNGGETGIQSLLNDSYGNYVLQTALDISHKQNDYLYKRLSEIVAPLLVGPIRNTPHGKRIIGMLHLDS

B1: Ic_S2_P3E.1_K3.1_C3.1_H3.1_A3.1_[T5G]_[A6T]_F3.1_[A8T]_T3.1 (ssRNA)
RNA: UUUGAUUAAUAUGAUAUCGUUCUUUCUUGUAGUUUUUCUUUCUCGAUAUCAUAUUAAUCUUU
B2: Ic_S2_P3E.1_K3.1_C3.1_H3.1_A3.1_[T5C]_[A6G]_F3.1_[A8T]_T3.1 (ssRNA)
RNA: B1 RNA with G32C, U33G
B3: Ic_S2_P3E.1_K3.1_C3.1_H3.1_A3.1_[T5C]_[A6T]_F3.1_[T7G]_[A8G]_T3.1 (ssRNA)
RNA: B1 RNA with G32C, U34G, U35G
B4: Ic_S2_P3E.1_K3.1_C3.1_H3.1_A3.1_[T5C]_[A6T]_F3.1_[T7C]_[A8T]_T3.1 (ssRNA)
RNA: B1 RNA with G32C, U34C
B5: Ic_S2_P3E.1_K3.1_C3.1_H3.1_A3.1_[T5C]_[A6C]_F3.1_[T7A]_[A8C]_T3.1 (ssRNA)
RNA: B1 RNA with G32C, U33C, U34A, U35C
B6: Ic_S2_P3E.1_K3.1_C3.1_H3.1_A3.1_[T5C]_[A6T]_F3.1_[T7C]_[A8C]_T3.1 (ssRNA)
RNA: B1 RNA with G32C, U34C, U35C
B7: Ic_S2_P3E.1_K3.1_C3.1_H3.1_A3.1_[T5C]_[A6T]_F3.1_[T7A]_[A8C]_T3.1 (ssRNA)
RNA: B1 RNA with G32C, U34A, U35C
B8: Ic_S2_P3E.1_K3.1_C3.1_H3.1_A3.1_[T5C]_[A6T]_F3.1_[T7G]_[A8C]_T3.1 (ssRNA)
RNA: B1 RNA with G32C, U34G, U35C
B9: Ic_S2_P3E.1_K3.1_C3.1_H3.1_A3.1_[T5C]_[A6C]_F3.1_[A8T]_T3.1 (ssRNA)
RNA: B1 RNA with G32C, U33C
B10: Ic_S2_P3E.1_K3.1_C3.1_H3.1_A3.1_[T5C]_[A6C]_F3.1_[T7A]_T3.1 (ssRNA)
RNA: B1 RNA with G32C, U33C, U34A, U35A
B11: Ic_S2_P3E.1_K3.1_C3.1_H3.1_A3.1_[T5C]_[A6T]_F3.1_[T7A]_[A8T]_T3.1 (ssRNA)
RNA: B1 RNA with G32C, U34A
B12: Ic_S2_P3E.1_K3.1_C3.1_H3.1_A3.1_[T5C]_[A6C]_F3.1_[T7A]_[A8T]_T3.1 (ssRNA)
RNA: B1 RNA with G32C, U33C, U34A
B13: Ic_S2_P3E.1_K3.1_C3.1_H3.1_A3.1_[T5C]_[A6C]_F3.1_[T7C]_[A8G]_T3.1 (ssRNA)
RNA: B1 RNA with G32C, U33C, U34C, U35G
B14: Ic_S2_P3E.1_K3.1_C3.1_H3.1_A3.1_[T5C]_[A6T]_F3.1_[A8G]_T3.1 (ssRNA)
RNA: B1 RNA with G32C, U35G
B15: Ic_S2_P3E.1_K3.1_C3.1_H3.1_A3.1_[T5C]_[A6C]_F3.1_[A8G]_T3.1 (ssRNA)
RNA: B1 RNA with G32C, U33C, U35G
B16: Ic_S2_P3E.1_K3.1_C3.1_H3.1_A3.1_[T5C]_[A6G]_F3.1_[T7C]_[A8C]_T3.1 (ssRNA)
RNA: B1 RNA with G32C, U33G, U34C, U35C
B17: Ic_S2_P3E.1_K3.1_C3.1_H3.1_A3.1_[T5C]_[A6T]_F3.1_[A8C]_T3.1 (ssRNA)
RNA: B1 RNA with G32C, U35C
B18: Ic_S2_P3E.1_K3.1_C3.1_H3.1_A3.1_[T5C]_[A6T]_F3.1_[T7A]_T3.1 (ssRNA)
RNA: B1 RNA with G32C, U34A, U35A
B19: Ic_S2_P3E.1_K3.1_C3.1_H3.1_A3.1_[T5C]_[A6C]_F3.1_[T7C]_[A8T]_T3.1 (ssRNA)
RNA: B1 RNA with G32C, U33C, U34C
B20: Ic_S2_P3E.1_K3.1_C3.1_H3.1_A3.1_[T5C]_[A6G]_F3.1_[T7G]_[A8C]_T3.1 (ssRNA)
RNA: B1 RNA with G32C, U33G, U34G, U35C
B21: Ic_S2_P3E.1_K3.1_C3.1_H3.1_A3.1_[T5C]_[A6C]_F3.1_[T7G]_[A8T]_T3.1 (ssRNA)
RNA: B1 RNA with G32C, U33C, U34G
B22: Ic_S2_P3E.1_K3.1_C3.1_H3.1_A3.1_[T5C]_[A6T]_F3.1_[T7A]_[A8G]_T3.1 (ssRNA)
RNA: B1 RNA with G32C, U34A, U35G

Each binder was assayed against T1, PUF4 RNA-binding domain (assay: Mg; RNA-MaP; 20 mM Na-HEPES pH 7.4, 30 mM KOAc, 0.75 mM MgCl2, 0.1% Tween-20, 5% glycerol, 0.1 mg/mL BSA, 2 mM DTT; 25 C; 0.0125-409.6 nM protein). Conditions: tags: N-His6-TEV cleaved; C-SNAP kept, Cy3B-labelled; label: tethered on chip by stalled RNA polymerase.

Row | Binder | Kd [nM]
1 | B1 | 23.2
2 | B2 | 14.5
3 | B3 | 1390
4 | B4 | 10.7
5 | B5 | 81.3
6 | B6 | 126
7 | B7 | 47
8 | B8 | 381
9 | B9 | 7.54
10 | B10 | 30.1
11 | B11 | 3.82
12 | B12 | 3.72
13 | B13 | 259
14 | B14 | 107
15 | B15 | 17.7
16 | B16 | 126
17 | B17 | 36.4
18 | B18 | 33.9
19 | B19 | 12.6
20 | B20 | 536
21 | B21 | 55.6
22 | B22 | 692
23 | UCUCUUUCUAUUUAUCUCUU (ssRNA) [Ib_S1_P3E.1_K3.1_C3.1_H3.1_[G2C]_A3.1_[A6T]_F3.1_T3.1] | > 2300
24 | UCUCUUUAUACAUAUCUCUU (ssRNA) [Ib_S1_P3E.1_K3.1_C3.1_H3.1_[G2A]_A3.1_[T5C]_F3.1_T3.1] | 900
25 | UCUCUUUUUAUGUAUCUCUU (ssRNA) [Ib_S1_P3E.1_K3.1_C3.1_H3.1_[G2T]_A3.1_[A6G]_F3.1_T3.1] | 354
